Assay results taken from paper PMC7096766.

Biological target: human alpha-thrombin (Homo sapiens, UniProt P00734;P00734 328-363;364-622)
Assay: SEC mobility shift

Binder	binding result
TTTTTTGGTTGGTGTGGTTGG (structured_DNA, 5'-C6-NH2, DBCO; conjugated by azide-DBCO cycloaddition to spider silk protein eADF4(C16)) [apt15-rssp (tba15-rssp)]	binds
TTTTTTAGTCCGTGGTAGGGCAGGTTGGGGTGACT (structured_DNA, 5'-C6-NH2, DBCO; conjugated by azide-DBCO cycloaddition to spider silk protein eADF4(C16)) [apt29-rssp (tba29-rssp)]	binds
